Results: paper PMC8887544

Target: Cas8f:Cas5f heterodimer (Xanthomonas albilineans, type I-F Cascade subunit) (Xanthomonas albilineans)
Test: ITC; 25°C; AcrIE4-F7 (250 μM) injected into Cas8f:Cas5f (35 μM) in the cell; 20 mM Tris-HCl pH 7.5, 150 mM NaCl, 1 mM TCEP

Substance	Kd [nM]
AcrIE4-F7 (natural protein)	26
AcrIE4-F7^CTD (C-terminal domain of AcrIE4-F7, residues 53-119) (domain or fragment)	13

Target: (His)6-MBP-tagged Cas8e (P. aeruginosa, type I-E) (P. aeruginosa (PRD-10 genomic DNA))
Test: ITC; 25°C; 20 μM of either AcrIE4-F7 or (His)6-MBP tagged Cas8e in the cell, titrated with 150-200 μM of the partner, both directions; 20 mM HEPES pH 7.0, 150 mM NaCl, 1 mM TCEP, 5% glycerol; triplicate

Substance	Kd [nM]	dH [kcal/mol]	stoichiometry N
AcrIE4-F7 (natural protein)	200	-14.7	1
AcrIE4-F7(D30K/E31K) (natural protein)	4800	-11.1	0.8
AcrIE4-F7(E12K/D13K) (natural protein)	400	-22.8	0.8
AcrIE4-F7(E38K/D39K) (natural protein)	190	-12.8	0.9
AcrIE4-F7(E46K) (natural protein)	430	-11.7	1
AcrIE4-F7(Y20A) (natural protein)	3500	-5.6	1.1
AcrIE4-F7^NTD (N-terminal domain of AcrIE4-F7, residues 1-52) (domain or fragment)	140	-18.1	0.8
